Our source for the Kd values is publication PMC6316570, “G-Protein Coupled Receptor Protein Synthesis on a Lipid Bilayer Using a Reconstituted Cell-Free Protein Synthesis System” (Life, 2018).

The target of assay [1] is T1, His-tagged CX3CR1 (human, UniProt P49238 1-355).
T1 construct: CX3CR1 (fractalkine receptor), human cDNA; Two templates are described; The pET28a plasmid has an N-terminal 6xHis tag, the linker DYDIPTT and a TEV site; The linear PCR product takes its His-tag from the reverse primer, which would be C-terminal; In the nanodisc assay the receptor sat in a lipid nanodisc (MSP scaffold, POPC/POPS/cholesterol); In the micelle assay it was in detergent; also called …
T1 sequence (looked up): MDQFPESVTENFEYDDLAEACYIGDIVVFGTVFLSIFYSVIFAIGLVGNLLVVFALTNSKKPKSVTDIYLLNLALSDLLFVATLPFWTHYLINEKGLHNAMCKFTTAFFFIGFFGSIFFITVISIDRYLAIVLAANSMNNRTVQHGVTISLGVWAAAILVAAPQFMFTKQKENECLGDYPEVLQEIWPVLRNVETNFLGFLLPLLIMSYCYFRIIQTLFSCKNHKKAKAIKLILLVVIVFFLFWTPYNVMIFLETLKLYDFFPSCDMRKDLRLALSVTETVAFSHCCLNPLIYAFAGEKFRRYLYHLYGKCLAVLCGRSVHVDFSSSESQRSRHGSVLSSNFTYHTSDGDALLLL
The assay is described as follows: SPR; Biacore T200; unpurified PURE-synthesized His-tagged CX3CR1-nanodisc complex captured (~1500 RU) on Penta-His antibody on CM5 chip; purified CX3CL1 injected; HBS-P (10 mM HEPES pH 7.4, 150 mM NaCl, 0.05% P20), 25 °C, 30 µL/min; single cycle kinetics; 1:1 interaction model.

Assay [2] concerns the target T1, His-tagged CX3CR1. The assay is described as follows: SPR; Biacore T200; unpurified PURE-synthesized Strep-tag II CX3CL1 captured (~1000 RU) on StrepMAB-Immo antibody on CM5 chip; purified His-tagged CX3CR1 synthesized with micelles, in detergent, injected; HBS-P, 25 °C, 30 µL/min; single cycle kinetics; 1:1 interaction model. The conditions noted are these: one partner purified. In general terms: SPR reads the build-up and loss of mass on a sensor chip optically.

What is called Kd is the free concentration of one partner at which half of the binding sites on the other are occupied at equilibrium, for simple one-to-one binding. In the assay with His-tagged CX3CR1 [1], “recombinant CX3CL1 protein (from UniProt P78423 25-397) (ligand)” came in with a Kd of 27.8 nM. This counts as double-digit nanomolar.

B1: strep-II-tagged ligand CX3CL1 (ligand, UniProt P78423 25-100, looked up)
chain: QHHGVTKCNITCSKMTSKIPVALLIHYQQNQASCGKRAIILETRQHRLFCADPKEQWVKDAMQHLDRQAAALTRNG
notes: fractalkine (CX3CL1), amplified from pUREstrept2 plasmid; printed size 8.5 kDa; also called fractalkine; CX3CL1-tagged with Strep-tag II; source: PURE system (cell-free), not purified, immobilized directly; not shown: Strep-tag II, N-terminal, kept
Molecule B1 returned a Kd with His-tagged CX3CR1 [2] of 39.4 nM. This lies in the double-digit nanomolar range.
